B1: Human TRPA1 (MBP-TRPA1) modified with BODIPY-iodoacetamide (BIA) (natural protein)
chain: KRSLRKMWRPGEKKEPQGVVYEDVPDDTEDFKESLKVVFEGSAYGLQNFNKQKKLKRCDDMDTFFLHYAAAEGQIELMEKITRDSSLEVLHEMDDYGNTPLHCAVEKNQIESVKFLLSRGANPNLRNFNMMAPLHIAVQGMNNEVMKVLLEHRTIDVNLEGENGNTAVIIACTTNNSEALQILLKKGAKPCKSNKWGCFPIHQAAFSGSKECMEIILRFGEEHGYSRQLHINFMNNGKATPLHLAVQNGDLEMIKMCLDNGAQIDPVEKGRCTAIHFAATQGATEIVKLMISSYSGSVDIVNTTDGCHETMLHRASLFDHHELADYLISVGADINKIDSEGRSPLILATASASWNIVNLLLSKGAQVDIKDNFGRNFLHLTVQQPYGLKNLRPEFMQMQQIKELVMDEDNDGCTPLHYACRQGGPGSVNNLLGFNVSIHSKSKDKKSPLHFAASYGRINTCQRLLQDISDTRLLNEGDLHGMTPLHLAAKNGHDKVVQLLLKKGALFLSDHNGWTALHHASMGGYTQTMKVILDTNLKCTDRLDEDGNTALHFAAREGHAKAVALLLSHNADIVLNKQQASFLHLALHNKRKEVVLTIIRSKRWDECLKIFSHNSPGNKCPITEMIEYLPECMKVLLDFCMLHSTEDKSCRDYYIEYNFKYLQCPLEFTKKTPTQDVIYEPLTALNAMVQNNRIELLNHPVCKEYLLMKWLAYGFRAHMMNLGSYCLGLIPMTILVVNIKPGMAFNSTGIINETSDHSEILDTTNSYLIKTCMILVFLSSIFGYCKEAGQIFQQKRNYFMDISNVLEWIIYTTGIIFVLPLFVEIPAHLQWQCGAIAVYFYWMNFLLYLQRFENCGIFIVMLEVILKTLLRSTVVFIFLLLAFGLSFYILLNLQDPFSSPLLSIIQTFSMMLGDINYRESFLEPYLRNELAHPVLSFAQLVSFTIFVPIVLMNLLIGLAVGDIAEVQKHASLKRIAMQVELHTSLEKKLPLWFLRKVDQKSTIVYPNKPRSGGMLFHIFCFLFCTGEIRQEIPNADKSLEMEILKQKYRLKDLTFLLEKQHELIKLIIQKMEIISETEDDDSHCSFQDRFKKEQMEQRNSRWNTVLRAVKAKTHHLEP
modifications: BODIPY-IA (BIA) covalent adduct at Cys621
B2: Human TRPA1 (N-terminal-tagged MBP-TRPA1), unmodified (apo or with the antagonist A-967079) (natural protein)
chain: MKRSLRKMWRPGEKKEPQGVVYEDVPDDTEDFKESLKVVFEGSAYGLQNFNKQKKLKRCDDMDTFFLHYAAAEGQIELMEKITRDSSLEVLHEMDDYGNTPLHCAVEKNQIESVKFLLSRGANPNLRNFNMMAPLHIAVQGMNNEVMKVLLEHRTIDVNLEGENGNTAVIIACTTNNSEALQILLKKGAKPCKSNKWGCFPIHQAAFSGSKECMEIILRFGEEHGYSRQLHINFMNNGKATPLHLAVQNGDLEMIKMCLDNGAQIDPVEKGRCTAIHFAATQGATEIVKLMISSYSGSVDIVNTTDGCHETMLHRASLFDHHELADYLISVGADINKIDSEGRSPLILATASASWNIVNLLLSKGAQVDIKDNFGRNFLHLTVQQPYGLKNLRPEFMQMQQIKELVMDEDNDGCTPLHYACRQGGPGSVNNLLGFNVSIHSKSKDKKSPLHFAASYGRINTCQRLLQDISDTRLLNEGDLHGMTPLHLAAKNGHDKVVQLLLKKGALFLSDHNGWTALHHASMGGYTQTMKVILDTNLKCTDRLDEDGNTALHFAAREGHAKAVALLLSHNADIVLNKQQASFLHLALHNKRKEVVLTIIRSKRWDECLKIFSHNSPGNKCPITEMIEYLPECMKVLLDFCMLHSTEDKSCRDYYIEYNFKYLQCPLEFTKKTPTQDVIYEPLTALNAMVQNNRIELLNHPVCKEYLLMKWLAYGFRAHMMNLGSYCLGLIPMTILVVNIKPGMAFNSTGIINETSDHSEILDTTNSYLIKTCMILVFLSSIFGYCKEAGQIFQQKRNYFMDISNVLEWIIYTTGIIFVLPLFVEIPAHLQWQCGAIAVYFYWMNFLLYLQRFENCGIFIVMLEVILKTLLRSTVVFIFLLLAFGLSFYILLNLQDPFSSPLLSIIQTFSMMLGDINYRESFLEPYLRNELAHPVLSFAQLVSFTIFVPIVLMNLLIGLAVGDIAEVQKHASLKRIAMQVELHTSLEKKLPLWFLRKVDQKSTIVYPNKPRSGGMLFHIFCFLFCTGEIRQEIPNADKSLEMEILKQKYRLKDLTFLLEKQHELIKLIIQKMEIISETEDDDSHCSFQDRFKKEQMEQRNSRWNTVLRAVKAKTHHLEP
B3: Human TRPA1 (MBP-TRPA1) modified with iodoacetamide (IA), activated state (natural protein)
chain: B2 chain
modifications: iodoacetamide covalent adduct at Cys621; weaker density at Cys665, which may reflect partial modification

Target: the molecule itself
Assay: cryo-EM structure

Binding result, binds:
B1, B2, B3

— paper doi:10.1101/2019.12.26.888982 (bioRxiv, 2019)
